From patent US20120263745A1 (DUKE UNIVERSITY, published 2012)
Where no end group is shown, it is not given here.

T1: Recombinant Chlamydial Protease-like Activity Factor (CPAF), his-tagged, expressed in E. coli BL21 (DE3) from … (C. trachomatis, UniProt O84866 17-234; O84866 276-601)
T1 sequence 1: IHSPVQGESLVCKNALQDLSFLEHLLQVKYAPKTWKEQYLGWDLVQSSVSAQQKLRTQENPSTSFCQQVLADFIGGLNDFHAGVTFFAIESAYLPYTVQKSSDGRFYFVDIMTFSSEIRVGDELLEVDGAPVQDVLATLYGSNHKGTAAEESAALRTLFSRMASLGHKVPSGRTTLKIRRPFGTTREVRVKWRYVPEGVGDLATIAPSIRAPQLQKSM
T1 sequence 2: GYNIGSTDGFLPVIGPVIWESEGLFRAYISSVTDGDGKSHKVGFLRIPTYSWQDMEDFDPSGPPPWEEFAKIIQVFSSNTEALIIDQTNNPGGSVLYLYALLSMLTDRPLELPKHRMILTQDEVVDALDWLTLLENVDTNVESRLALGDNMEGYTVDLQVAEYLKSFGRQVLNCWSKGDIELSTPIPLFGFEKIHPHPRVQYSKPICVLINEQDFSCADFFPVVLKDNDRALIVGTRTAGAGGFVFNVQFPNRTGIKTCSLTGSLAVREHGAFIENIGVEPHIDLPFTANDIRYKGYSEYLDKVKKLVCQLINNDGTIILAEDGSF

T2: Sequence-scrambled control peptide H-NFALSHFRLPLSTYKEMPYVSHWAGRRRRRRRRR-NH2 (SEQ ID NO:11)
T2 chain: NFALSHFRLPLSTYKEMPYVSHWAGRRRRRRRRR

T3: Peptide of SEQ ID NO:7 (CPAF inhibitory segment plus nine C-terminal arginines) (not fully specified)
T3 chain: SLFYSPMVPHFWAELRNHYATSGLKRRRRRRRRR

T4: Abz-tagged model CPAF substrate Abz-V-R-L-R-S-S-V-P-G-V-NH2 (SEQ ID NO:9), derived from human vimentin
T4 chain: VRLRSSVPGV

B1: Peptide of SEQ ID NO:2 (CPAF inhibitory segment, SLFYSPMVPHFWAELRNHYATSGLK) (peptide)
peptide: SLFYSPMVPHFWAELRNHYATSGLK
modifications: not fully specified (C-terminus)
B2: Recombinant Chlamydial Protease-like Activity Factor (CPAF), his-tagged, expressed in E. coli BL21 (DE3) from pET30b-CPAF (protein)
chain 1: T1 sequence 1
chain 2: T1 sequence 2
B3: Peptide of SEQ ID NO:7 (CPAF inhibitory segment plus nine C-terminal arginines) (peptide)
peptide: T3 chain
modifications: not fully specified (C-terminus)

What was measured:
[1] = target: T1, Recombinant Chlamydial Protease-like …; assay: cell-based or functional assay
[2] = target: Endogenous Ct694 from EB lysates
[3] = target: T2, Sequence-scrambled control peptide …
[4] = target: Endogenous Ct288 from EB lysates
[5] = target: Endogenous Tarp from EB lysates
[6] = target: Recombinant Mcsc, T3S chaperone
[7] = target: Recombinant CdsQ, type-III secretion (T3S) core component
[8] = target: Recombinant Ct584, T3S needle component
[9] = target: T3, Peptide of SEQ ID NO:7 (CPAF inhibitory …)
[10] = target: T4, Abz-tagged model CPAF substrate …

Row | Binder | IC50, inhibition of CPAF cleavage of the Abz-tagged model substrate SEQ ID NO:9 (HPLC-based assay, 62.5 nM CPAF, 0.5 mM substrate) [1] | incubation of EB lysates with recombinant CPAF, immunoblot (FIG. 7) [2] | CPAF cleavage of GST-chlamydial substrates in vitro (SDS-PAGE, FIG. 8E) [3] | incubation of EB lysates with recombinant CPAF, immunoblot (FIG. 7) [4] | incubation of EB lysates with recombinant CPAF, immunoblot (FIG. 7) [5] | incubation with recombinant CPAF, immunoblot (FIG. 5B) [6] | incubation with recombinant CPAF, immunoblot (FIG. 5B) [7] | incubation with recombinant CPAF, immunoblot (FIG. 5B) [8] | CPAF cleavage of GST-chlamydial substrates in vitro (SDS-PAGE, FIG. 8E) [9] | KM of CPAF proteolysis of the model substrate (HPLC-based assay) [10] | kcat of CPAF proteolysis of the model substrate (HPLC-based assay) [10] | kcat/KM of CPAF proteolysis of the model substrate (HPLC-based assay) [10] | IC50, inhibition of CPAF cleavage of the Abz/3-nitrotyrosine model substrate SEQ ID NO:10 (FRET-based assay, 62.5 nM CPAF) [1] | fold greater inhibition than SEQ ID NO:2 (HPLC-based assay) [1] | fold greater inhibition than lactacystin (HPLC-based assay) [1]
1 | B1 | 1600 nM |  |  |  |  |  |  |  |  |  |  |  |  |  | 
2 | B2 |  | specifically degraded | but not a scrambled sequence of equal molecular weight (SEQ ID NO:11) | Ct694, TARP and Ct288 were cleaved | specifically degraded | Recombinant CPAF does not cleave chlamydial proteins that are resistant to processing by cytosols form infected HeLa cells | Recombinant CPAF does not cleave chlamydial proteins that are resistant to processing by cytosols form infected HeLa cells | Recombinant CPAF does not cleave chlamydial proteins that are resistant to processing by cytosols form infected HeLa cells | broadly inhibited degradation of CPAF substrates in vitro and in vivo | KM=0.88 mM | kcat=13.2 5^-1 | kcat/KM=1.5×10^4 M^-1s^-1 |  |  | 
3 | B3 | 50 nM |  |  |  |  |  |  |  |  |  |  |  | 30 nM | ~30 fold | ~200 fold
